From PMC2849990 (Structure (London, England : 1993), 2008)

Tests used:
[1] = molecular target: T1, human pyruvate dehydrogenase (E1p) component, heterotetramer alpha2beta2 (Homo sapiens, UniProt P08559+P11177, P08559:Y118F); experiment: tryptophan fluorescence quenching; type: binding
T1 sequence (P08559 30-390 Y118F): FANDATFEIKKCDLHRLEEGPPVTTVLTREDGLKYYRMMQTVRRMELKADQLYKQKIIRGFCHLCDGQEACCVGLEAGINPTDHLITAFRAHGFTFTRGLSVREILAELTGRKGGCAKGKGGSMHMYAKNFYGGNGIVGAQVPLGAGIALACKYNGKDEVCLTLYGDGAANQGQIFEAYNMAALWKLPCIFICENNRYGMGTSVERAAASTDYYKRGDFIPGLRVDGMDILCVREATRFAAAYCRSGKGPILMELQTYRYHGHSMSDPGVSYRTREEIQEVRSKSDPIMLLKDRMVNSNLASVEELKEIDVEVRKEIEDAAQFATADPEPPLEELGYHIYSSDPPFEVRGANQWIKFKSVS
T1 sequence (P11177 31-359): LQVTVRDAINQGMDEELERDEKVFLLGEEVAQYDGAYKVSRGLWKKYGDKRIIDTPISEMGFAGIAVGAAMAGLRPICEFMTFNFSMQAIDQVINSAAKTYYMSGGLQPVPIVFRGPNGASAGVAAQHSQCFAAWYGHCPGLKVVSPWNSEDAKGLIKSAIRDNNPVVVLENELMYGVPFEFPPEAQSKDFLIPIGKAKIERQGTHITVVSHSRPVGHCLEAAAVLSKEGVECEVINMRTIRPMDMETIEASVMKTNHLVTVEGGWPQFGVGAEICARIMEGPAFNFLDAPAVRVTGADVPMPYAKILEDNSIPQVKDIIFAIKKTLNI

[2] = molecular target: T2, human pyruvate dehydrogenase (E1p) component, heterotetramer alpha2beta2 (Homo sapiens, UniProt P08559+P11177); experiment: tryptophan fluorescence quenching; type: binding
T2 sequence (P08559 30-390): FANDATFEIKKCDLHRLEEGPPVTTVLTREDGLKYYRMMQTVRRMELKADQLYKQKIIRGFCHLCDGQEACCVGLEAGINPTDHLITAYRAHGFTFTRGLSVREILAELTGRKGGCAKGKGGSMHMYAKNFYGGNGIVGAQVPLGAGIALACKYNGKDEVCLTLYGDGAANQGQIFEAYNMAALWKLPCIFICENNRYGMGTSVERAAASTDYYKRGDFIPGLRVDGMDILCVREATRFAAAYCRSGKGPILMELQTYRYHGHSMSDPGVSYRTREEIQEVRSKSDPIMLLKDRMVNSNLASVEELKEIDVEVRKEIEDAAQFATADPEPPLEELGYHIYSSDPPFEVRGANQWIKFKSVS
T2 sequence (P11177 31-359): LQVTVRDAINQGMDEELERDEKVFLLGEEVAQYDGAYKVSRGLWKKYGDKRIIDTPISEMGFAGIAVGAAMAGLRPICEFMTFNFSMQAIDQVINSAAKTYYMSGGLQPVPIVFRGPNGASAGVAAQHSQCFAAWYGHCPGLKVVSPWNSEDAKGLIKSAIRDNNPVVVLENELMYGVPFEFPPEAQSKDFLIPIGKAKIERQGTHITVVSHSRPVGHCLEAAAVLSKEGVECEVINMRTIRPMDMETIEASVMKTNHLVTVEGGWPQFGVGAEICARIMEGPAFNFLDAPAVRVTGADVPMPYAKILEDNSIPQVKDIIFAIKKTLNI

[3] = molecular target: T3, E1p-α subunit of Y89F-α mutant E1p (human, UniProt P08559 30-390, Y89F-α); experiment: crystal structure
T3 sequence: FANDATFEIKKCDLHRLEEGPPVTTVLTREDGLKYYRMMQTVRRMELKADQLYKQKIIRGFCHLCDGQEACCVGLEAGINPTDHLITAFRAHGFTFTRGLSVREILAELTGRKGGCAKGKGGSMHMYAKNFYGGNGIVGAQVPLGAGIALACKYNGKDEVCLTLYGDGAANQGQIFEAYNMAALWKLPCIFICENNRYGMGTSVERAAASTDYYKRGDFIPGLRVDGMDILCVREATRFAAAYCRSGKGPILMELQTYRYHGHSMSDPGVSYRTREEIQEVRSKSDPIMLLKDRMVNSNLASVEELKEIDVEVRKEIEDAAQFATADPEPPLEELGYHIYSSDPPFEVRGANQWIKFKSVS

[4] = molecular target: T4, E1p-α subunit of wild-type human E1p (human, UniProt P08559 30-390); experiment: crystal structure
T4 sequence: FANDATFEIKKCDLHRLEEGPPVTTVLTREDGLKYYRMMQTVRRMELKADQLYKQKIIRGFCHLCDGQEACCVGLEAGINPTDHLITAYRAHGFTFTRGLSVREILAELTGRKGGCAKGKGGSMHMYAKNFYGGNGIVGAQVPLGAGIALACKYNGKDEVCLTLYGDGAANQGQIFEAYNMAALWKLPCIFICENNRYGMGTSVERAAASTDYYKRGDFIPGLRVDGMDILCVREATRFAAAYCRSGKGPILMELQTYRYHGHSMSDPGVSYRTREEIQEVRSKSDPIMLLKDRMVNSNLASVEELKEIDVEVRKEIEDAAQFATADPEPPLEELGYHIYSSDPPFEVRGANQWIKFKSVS

[5] = molecular target: T5, E1p-α subunit of S1-E1p (S271A-α, S203A-α) (human, UniProt P08559 30-390, S271A-α | S203A-α); experiment: crystal structure
T5 sequence: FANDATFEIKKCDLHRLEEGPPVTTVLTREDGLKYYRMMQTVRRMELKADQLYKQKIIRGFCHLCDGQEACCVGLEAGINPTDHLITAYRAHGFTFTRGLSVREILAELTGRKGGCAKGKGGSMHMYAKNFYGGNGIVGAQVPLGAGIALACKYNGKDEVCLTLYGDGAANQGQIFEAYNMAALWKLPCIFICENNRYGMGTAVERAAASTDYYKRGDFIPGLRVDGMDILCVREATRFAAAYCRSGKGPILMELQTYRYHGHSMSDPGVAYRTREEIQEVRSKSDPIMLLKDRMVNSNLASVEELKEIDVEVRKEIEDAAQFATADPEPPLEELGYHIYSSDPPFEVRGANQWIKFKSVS

Molecule: Cc1ncc(C[n+]2csc(CCO[P@](=O)(O)OP(=O)(O)O)c2C)c(N)n1 [ThDP]
- Kd [1]: 50.2 ± 4.6 µM
- Kd [2]: 0.11 ± 0.01 µM

B1: E1p-β subunit of human E1p (natural protein)
chain: LQVTVRDAINQGMDEELERDEKVFLLGEEVAQYDGAYKVSRGLWKKYGDKRIIDTPISEMGFAGIAVGAAMAGLRPICEFMTFNFSMQAIDQVINSAAKTYYMSGGLQPVPIVFRGPNGASAGVAAQHSQCFAAWYGHCPGLKVVSPWNSEDAKGLIKSAIRDNNPVVVLENELMYGVPFEFPPEAQSKDFLIPIGKAKIERQGTHITVVSHSRPVGHCLEAAAVLSKEGVECEVINMRTIRPMDMETIEASVMKTNHLVTVEGGWPQFGVGAEICARIMEGPAFNFLDAPAVRVTGADVPMPYAKILEDNSIPQVKDIIFAIKKTLNI
- binding result [3]: binds
- binding result [4]: binds
- binding result [5]: binds
